According to patent US20220040297A1 (Chugai, published 2022):
Substitutions are numbered along the chain they refer to.

B1: GLS3000 H27dQ (antibody, name in Kabat numbering, V domains shown)
VH: QVQLVESGGGVVQPGRSLRLSCAASGFTFSNAWMHWVRQAPGKGLEWVAQIKAKSNNYATYYAESVKGRFTISRDDSKNSLYLQMNSLKTEDTAVYYCRYVHYGAYYGVDAWGQGTTVTVSS
VL: DIVMTQSPLSLPVTPGEPASISCRSSQSLVQSNRNTYLHWYQQKPGQAPRLLIYKVSNRFSGVPDRFSGSGSGTDFTLKISRVEAEDVGVYYCGQGTQVPYTFGQGTKLEIK
notes: one-arm format as m2
B2: GLS3000 H27dR (antibody, name in Kabat numbering, V domains shown)
VH: B1 VH
VL: B1 VL with Q31R
notes: one-arm format as m2
B3: GLS3000 H27dS (antibody, name in Kabat numbering, V domains shown)
VH: B1 VH
VL: B1 VL with Q31S
notes: one-arm format as m2
B4: GLS3000 H27dT (antibody, name in Kabat numbering, V domains shown)
VH: B1 VH
VL: B1 VL with Q31T
notes: one-arm format as m2
B5: GLS3000 H27dV (antibody, name in Kabat numbering, V domains shown)
VH: B1 VH
VL: B1 VL with Q31V
notes: one-arm format as m2
B6: GLS3000 H27dW (antibody, name in Kabat numbering, V domains shown)
VH: B1 VH
VL: B1 VL with Q31W
notes: one-arm format as m2
B7: GLS3000 H27dY (antibody, name in Kabat numbering, V domains shown)
VH: B1 VH
VL: B1 VL with Q31Y
notes: one-arm format as m2
B8: GLS3000 H34A (antibody, name in Kabat numbering, V domains shown)
VH: B1 VH
VL: B1 VL with Q31H, H39A
notes: one-arm format as m2
B9: GLS3000 H34D (antibody, name in Kabat numbering, V domains shown)
VH: B1 VH
VL: B1 VL with Q31H, H39D
notes: one-arm format as m2
B10: GLS3000 H34E (antibody, name in Kabat numbering, V domains shown)
VH: B1 VH
VL: B1 VL with Q31H, H39E
notes: one-arm format as m2
B11: GLS3000 H34F (antibody, name in Kabat numbering, V domains shown)
VH: B1 VH
VL: B1 VL with Q31H, H39F
notes: one-arm format as m2
B12: GLS3000 H34G (antibody, name in Kabat numbering, V domains shown)
VH: B1 VH
VL: B1 VL with Q31H, H39G
notes: one-arm format as m2
B13: GLS3000 H34I (antibody, name in Kabat numbering, V domains shown)
VH: B1 VH
VL: B1 VL with Q31H, H39I
notes: one-arm format as m2
B14: GLS3000 H34K (antibody, name in Kabat numbering, V domains shown)
VH: B1 VH
VL: B1 VL with Q31H, H39K
notes: one-arm format as m2
B15: GLS3000 H34L (antibody, name in Kabat numbering, V domains shown)
VH: B1 VH
VL: B1 VL with Q31H, H39L
notes: one-arm format as m2
B16: GLS3000 H34M (antibody, name in Kabat numbering, V domains shown)
VH: B1 VH
VL: B1 VL with Q31H, H39M
notes: one-arm format as m2
B17: GLS3000 H34N (antibody, name in Kabat numbering, V domains shown)
VH: B1 VH
VL: B1 VL with Q31H, H39N
notes: one-arm format as m2
B18: GLS3000 H34P (antibody, name in Kabat numbering, V domains shown)
VH: B1 VH
VL: B1 VL with Q31H, H39P
notes: one-arm format as m2
B19: GLS3000 H34Q (antibody, name in Kabat numbering, V domains shown)
VH: B1 VH
VL: B1 VL with Q31H, H39Q
notes: one-arm format as m2
B20: GLS3000 H34R (antibody, name in Kabat numbering, V domains shown)
VH: B1 VH
VL: B1 VL with Q31H, H39R
notes: one-arm format as m2
B21: GLS3000 H34S (antibody, name in Kabat numbering, V domains shown)
VH: B1 VH
VL: B1 VL with Q31H, H39S
notes: one-arm format as m2
B22: GLS3000 H34T (antibody, name in Kabat numbering, V domains shown)
VH: B1 VH
VL: B1 VL with Q31H, H39T
notes: one-arm format as m2
B23: GLS3000 H34V (antibody, name in Kabat numbering, V domains shown)
VH: B1 VH
VL: B1 VL with Q31H, H39V
notes: one-arm format as m2
B24: GLS3000 H34W (antibody, name in Kabat numbering, V domains shown)
VH: B1 VH
VL: B1 VL with Q31H, H39W
notes: one-arm format as m2
B25: GLS3000 H34Y (antibody, name in Kabat numbering, V domains shown)
VH: B1 VH
VL: B1 VL with Q31H, H39Y
notes: one-arm format as m2
B26: GLS3000 K50A (antibody, name in Kabat numbering, V domains shown)
VH: B1 VH
VL: B1 VL with Q31H, K55A
notes: one-arm format as m2
B27: GLS3000 K50D (antibody, name in Kabat numbering, V domains shown)
VH: B1 VH
VL: B1 VL with Q31H, K55D
notes: one-arm format as m2
B28: GLS3000 K50E (antibody, name in Kabat numbering, V domains shown)
VH: B1 VH
VL: B1 VL with Q31H, K55E
notes: one-arm format as m2
B29: GLS3000 K50G (antibody, name in Kabat numbering, V domains shown)
VH: B1 VH
VL: B1 VL with Q31H, K55G
notes: one-arm format as m2
B30: GLS3000 K50L (antibody, name in Kabat numbering, V domains shown)
VH: B1 VH
VL: B1 VL with Q31H, K55L
notes: one-arm format as m2
B31: GLS3000 K50P (antibody, name in Kabat numbering, V domains shown)
VH: B1 VH
VL: B1 VL with Q31H, K55P
notes: one-arm format as m2
B32: GLS3000 K50Q (antibody, name in Kabat numbering, V domains shown)
VH: B1 VH
VL: B1 VL with Q31H, K55Q
notes: one-arm format as m2
B33: GLS3000 K50R (antibody, name in Kabat numbering, V domains shown)
VH: B1 VH
VL: B1 VL with Q31H, K55R
notes: one-arm format as m2
B34: GLS3000 K50S (antibody, name in Kabat numbering, V domains shown)
VH: B1 VH
VL: B1 VL with Q31H, K55S
notes: one-arm format as m2
B35: GLS3000 K50T (antibody, name in Kabat numbering, V domains shown)
VH: B1 VH
VL: B1 VL with Q31H, K55T
notes: one-arm format as m2
B36: GLS3000 K50Y (antibody, name in Kabat numbering, V domains shown)
VH: B1 VH
VL: B1 VL with Q31H, K55Y
notes: one-arm format as m2
B37: GLS3000 K74T (antibody, name in Kabat numbering, V domains shown)
VH: B1 VH
VL: B1 VL with Q31H, K79T
notes: one-arm format as m2
B38: GLS3000 K107E (antibody, name in Kabat numbering, V domains shown)
VH: B1 VH
VL: B1 VL with Q31H, K112E
notes: one-arm format as m2
B39: GLS3000 L27bD (antibody, name in Kabat numbering, V domains shown)
VH: B1 VH
VL: B1 VL with L29D, Q31H
notes: one-arm format as m2
B40: GLS3000 L27bE (antibody, name in Kabat numbering, V domains shown)
VH: B1 VH
VL: B1 VL with L29E, Q31H
notes: one-arm format as m2
B41: GLS3000 L27bF (antibody, name in Kabat numbering, V domains shown)
VH: B1 VH
VL: B1 VL with L29F, Q31H
notes: one-arm format as m2
B42: GLS3000 L27bI (antibody, name in Kabat numbering, V domains shown)
VH: B1 VH
VL: B1 VL with L29I, Q31H
notes: one-arm format as m2
B43: GLS3000 L27bM (antibody, name in Kabat numbering, V domains shown)
VH: B1 VH
VL: B1 VL with L29M, Q31H
notes: one-arm format as m2
B44: GLS3000 L27bP (antibody, name in Kabat numbering, V domains shown)
VH: B1 VH
VL: B1 VL with L29P, Q31H
notes: one-arm format as m2
B45: GLS3000 L27bS (antibody, name in Kabat numbering, V domains shown)
VH: B1 VH
VL: B1 VL with L29S, Q31H
notes: one-arm format as m2
B46: GLS3000 L27bV (antibody, name in Kabat numbering, V domains shown)
VH: B1 VH
VL: B1 VL with L29V, Q31H
notes: one-arm format as m2

Biological target: CD3ε homodimer protein (human, UniProt P07766 23-126, limits assumed)
Sequence (P07766 23-126 limits assumed): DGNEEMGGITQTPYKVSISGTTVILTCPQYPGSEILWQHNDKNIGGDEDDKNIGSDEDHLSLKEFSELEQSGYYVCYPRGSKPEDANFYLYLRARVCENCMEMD
Experiment: SPR, immobilized CD3ε homodimer;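 note: biacore T200 surface plasmon resonance at 25 °C, antibody variants flowed as analytes over amine-coupled CD3ε homodimer on a CM4 chip, variant binding amount divided by that of GLS3000 antibody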

Binder | ratio of amounts bound (vs GLS3000)
B1 | 0.25
B2 | 0.31
B3 | 0.32
B4 | 0.29
B5 | 0.3
B6 | 0.39
B7 | 0.64
B8 | 1.06
B9 | 0.22
B10 | 0.23
B11 | 0.27
B12 | 1.02
B13 | 0.65
B14 | 2.17
B15 | 0.59
B16 | 0.35
B17 | 0.65
B18 | 0.34
B19 | 0.25
B20 | 0.2
B21 | 0.78
B22 | 0.89
B23 | 0.85

Binder | ratio of amounts bound (vs GLS3000)
B24 | 0.21
B25 | 0.59
B26 | 0.23
B27 | 0.22
B28 | 0.24
B29 | 0.16
B30 | 0.24
B31 | 0.3
B32 | 0.18
B33 | 0.5
B34 | 0.23
B35 | 0.19
B36 | 0.24
B37 | 0.84
B38 | 0.94
B39 | 0.17
B40 | 0.17
B41 | 0.42
B42 | 1.19
B43 | 0.71
B44 | 0.91
B45 | 0.71
B46 | 1.12
